What is called Kd is a measure of binding affinity in units of concentration.

In the assay the target is T1, CG56972-ECD, recombinant human GPNMB extracellular domain (aa 23-480), GPNMB-V5His (human, UniProt Q14956 23-492).
T1 construct: Expressed in HEK293 cells; also called GPNMB-V5His immunogen; purified CG56972-ECD protein; not shown: The tag would matter only for the xV5 reagent, not for the anti-GPNMB antibodies
T1 sequence: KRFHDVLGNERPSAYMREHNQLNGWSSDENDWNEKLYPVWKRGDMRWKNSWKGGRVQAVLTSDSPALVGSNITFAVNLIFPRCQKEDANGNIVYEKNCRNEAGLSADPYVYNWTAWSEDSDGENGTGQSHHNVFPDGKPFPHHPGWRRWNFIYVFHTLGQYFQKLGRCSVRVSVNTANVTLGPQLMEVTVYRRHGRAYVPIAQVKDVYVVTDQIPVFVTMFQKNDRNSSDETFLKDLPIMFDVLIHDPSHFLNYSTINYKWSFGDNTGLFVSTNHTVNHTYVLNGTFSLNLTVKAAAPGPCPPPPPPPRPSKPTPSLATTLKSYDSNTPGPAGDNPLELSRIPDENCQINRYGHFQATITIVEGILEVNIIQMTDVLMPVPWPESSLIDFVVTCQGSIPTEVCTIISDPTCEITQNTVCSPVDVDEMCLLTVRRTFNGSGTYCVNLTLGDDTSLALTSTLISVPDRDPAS
The assay can be described thus: method not stated; purified CG56972-ECD protein.

B1: CR011, fully human monoclonal antibody Mab 1.15.1 (IgG2) (antibody, V domains shown)
VH: QVQLQESGPGLVKPSQTLSLTCTVSGGSISSFNYYWSWIRHHPGKGLEWIGYIYYSGSTYSNPSLKSRVTISVDTSKNQFSLTLSSVTAADTAVYYCARGYNWNYFDYWGQGTLVTVSS
VL: not shown
notes: The unconjugated IgG2 form was used in flow cytometry; also called CR011 (anti-GPNMB)
As for B1, the Kd was determined as 0.052 µM.

For the origin of these results see US20180043014A1 (CELLDEX THERAPEUTICS, published 2018).
